Source: US20190309093A1
One block for each substance: values may come before it.

Experiments:
[1] = biological target: CD3 on Jurkat luciferase reporter cells (UniProt P07766); assay: flow cytometry of Jurkat_NFAT_Luc2P cells, PE-A; fold over hIgG
[2] = biological target: CD3 on Jurkat luciferase reporter cells (UniProt P07766); assay: flow cytometry of Jurkat_NFAT_Luc2P cells; reference value, printed in all three panels on the left
[3] = biological target: CD3 on Jurkat luciferase reporter cells (UniProt P07766); assay: flow cytometry of Jurkat_NFAT_Luc2P cells, FITC-A; fold over hIgG

Fold [1]: 58
Substance: Commercial CD3e(HiT3a) (antibody)

Fold [2]: 1
Substance: hIgG (antibody)

Fold [3]: 45
Substance: mOKT3 (antibody)
